US7662769B2, “Glycosyltransferase GnT-V having neovascularization action” (Suntory Holdings Limited, priority 2002, dated 2010)
*1 amine or outer side, *2 acyl side, *3 side chain or, on linkers, in order; H or OH if unused. Where a SMILES comes first, the peptide text is derived from it. [ ]: non-standard residue; d: D form. The star is where a group is joined. X1 = CC(N[*:1])C(=O)C(F)(F)C(=O)[*:2]; Boc = CC(C)(C)OC(=O)*

Tests used:
PaCa-2/GnT-V cell = experiment: GnT-V activity in culture solution (production of secretory type GnT-V), PaCa-2/GnT-V cell; format: cell-based; conditions: 100 μM in DMSO, FIG. 10A
KB/GnT-V cell = experiment: GnT-V activity in culture solution (production of secretory type GnT-V), KB/GnT-V cell; format: cell-based; conditions: 100 μM in DMSO, FIG. 10B
HUVEC [1] = experiment: HUVEC differentiation and growth, incorporation of [3H]-thymidine (DNA synthesis); format: cell-based, human; conditions: [3H]-thymidine incorporation; FIG. 2, 3B, 6
Experimental: For in vitro evaluation of induction of neovascularization by a GnT-V transformant, the amount of synthesis of DNA of human umbilical vein […] cells (HUVEC) after stimulation with culture solution of a GnT-V transformant was measured by a method of Soker et al.(Soker, S., et al., J. Biol. Chem. 272, 31582-31588 (1997)). HUVEC was inoculated on a 96-well plate coated with type I collagen at a rate of 2×10^3 cells per well, and 24 hours later, the medium was substituted with an MCDB131 medium (not containing FBS and FGF-2) containing 0.1% […] and a starved condition was maintained for 24 hours. The medium was substituted with culture solution of the WiDr cell transformed with the glycosyltransferase gene described in Example 1, and HUVEC was stimulated for 24 hours. HUVEC was maintained for 8 hours with [^3H]-thymidine (1 μCi/ml), and incorporation of [^3H]-thymidine into HUVEC was analyzed by MicroBeta-Counter (manufactured by Wallac) to measure the amount of synthesis of DNA. The result was shown as the mean value of assay results of 6 wells, and the standard deviation was measured. All experiments were repeated at least three times, and the same results were obtained. As apparent from FIG. 1, DNA synthesis of HUVEC stimulated with the culture solution of WiDr cells transformed with a GnT-V gene increased, however, the same effect was not observed in culture solution of WiDr cells transformed with other glycosyltransferase genes.
Purification of a neovascularization factor present in culture solution of WiDr cells transformed with a GnT-V gene was conducted using various column chromatographies. The neovascularization activity of each fraction was evaluated by differentiation and growth of HUVEC described in Example 3. In heparin affinity chromatography, a fraction of high growth activity of HUVEC was eluted with 0.3 M NaCl. Since known growth factors such as FGF-1, FGF-2, VEGF, placenta-induced growth factor (PIGF) and hepatocyte growth factor (HGF) and the like are eluted with 0.8 to 1.5 M NaCl (Hauser, S. & Weich H. A., Growth Factor 9, 259-268 (1993). Gohda, E., et al., J. Clin. Invest. 81, 414-419 (1998). Marez, A., et al., Biochimie 69, 125-129 (1987). Risau, W., et al., The EMBO J. 7, 959-962 (1988). Rothenthal, R. A., et al., Growth Factor 4, 53-59 (1990)), the above-mentioned nature is utterly different from the natures of these known growth factors. […] A fraction eluted with 0.3 M NaCl in heparin affinity chromatography was subjected to Western blot analysis using an anti-GnT-V antibody to find that the reaction of the anti-GnT-V antibody and the differentiation and growth activity of HUVEC are consistent each other, and the main protein having a differentiation and growth activity of HUVEC present in the fraction is GnT-V itself.

HSPG on HUVEC = experiment: release of FGF-2 from HSPG on HUVEC (FGF-2 ELISA of supernatant); format: cell-based, human; conditions: 4° C., 2 hours; FIG. 5
Source text: A basic peptide (KRKRKK peptide) composed of Lys-Arg-Lys-Arg-Lys-Lys (SEQ ID NO: 11) which is an amino acid sequence of from 264 to 269 and a non-basic control peptide (FSGGPL peptide) composed of Phe-Ser-Gly-Gly-Pro-Leu (SEQ ID NO: 12) which is an amino acid sequence of from 291 to 296, of GnT-V, were synthesized, and an influence of these peptides on growth of HUVEC was examined. The peptide was synthesized by a peptide synthesizer A432 (manufactured by Applied Biosystems), and purified by reverse phase HPLC, then, its molecular weight and degree of purification were confirmed by MALDI TOF-MS (Voyager-DE (registered trademark) RP; manufactured by PerSeptive Biosystems). The concentration of FGF-2 was measured by a known method (Barillari, G., et al., American J. Patho. 152, 1161-1166 (1998)). […] After centrifugation at 4° C. and 3000 rpm for 5 minutes, the supernatant was collected, the concentration of FGF-2 in the supernatant was measured in an FGF-2 ELISA system (manufactured by R&D Systems) according to a manual of this system.
As described above, various deficient variants of GnT-V and synthetic peptides were added at 4° C. to culture solution of HUVEC, and the amount of FGF-2 released from HSPG on HUVEC was measured.

[2] = glycosyltransferase activity of GnT-V deficient variants; format: biochemical; conditions: recombinant variants from Sf21 cells
Source text: For clarifying which domain of GnT-V is involved in HUVEC growth accelerating activity, a GnT-V lacking variant shown in FIG. 3A was produced. The method of production of a GnT-VΔ188 plasmid is disclosed in a literature of Sasai et al (Sasai, K., et al., Glycobiology (in press)). A transfer plasmid having a GnT-VΔ233 gene was produced by binding a DNA fragment of 1521 base pairs encoding polyhistidine tag at the C-terminal and an amino acid sequence of from Glu234 to Leu741 of human GnT-V, obtained by cutting a GnT-VΔ188 plasmid with EcoRI and EagI, to an EcoRI-EagI site of a transfer vector pAcGP67-A (manufactured by PharMingen). A transfer plasmid having a GnT-VΔ436 gene was produced by binding a DNA fragment of 912 base pairs encoding polyhistidine tag at the C terminal and an amino acid sequence of from Ile437 to Leu741, of human GnT-V, obtained by cutting a GnT-VΔ188 plasmid with EcoRV and EagI, to an EcoRV-EagI site of a transfer vector pAcGP67-A. For production of a recombinant Baculovirus, an insect cell Sf21 was transformed with the transfer plasmid obtained above according to a method known in a literature (Ikeda, Y., et al., J. Biochem. 128, 609-619 (2000)). The recombinant glycosyltransferase derived from the transformed Sf21 cell was purified by Ni^2+-chelating affinity chromatography according to a method disclosed in a literature of Sasaki et al (Sasai, K., et al., Glycobiology (in press)).

chicken microvessels = experiment: CAM (chorioallantoic membrane) assay of neovascularization; format: in vivo; conditions: ex-vivo, chicken embryo CAM
Experimental: Acceleration of neovascularization by a GnT-V transformant was confirmed by a CAM (chorioallantoic membrane) assay using an embryo of a chicken fertilized egg. The CAM assay was conducted by a method of Yen et al. (Yen, L., et al., Oncogene 19, 3460-3469 (2000)) and a method of Bernardini (Bernardini, G., et al., Blood 96, 4039-4045 (2000)), both being slightly modified. CAM 8 days after fertilization of white Leghorn was used, and 1×10^5 cells thereof were inoculated on a collagen sponge and maintained for 4 hours. A 5 mm silicon ring was placed on CAM on the collagen sponge and maintained for 48 hours.
(§1) Induction of neovascularization by GnT-V was confirmed also by other in vitro neovascularization assays such as a capillary-like tube formation assay (Ashoton, A. W., et al., J. Biol. Chem. 274, 35562-35570 (1999)) and a migration assay (Zeng, H., et al., J. Biol. Chem. 276, 3271-3279 (2001)) using HUVEC.

HUVEC [3] = experiment: migration assay using HUVEC; format: cell-based, human
Source text: as §1

HUVEC [4] = experiment: capillary-like tube formation assay using HUVEC; format: cell-based, human
Source text: as §1

Molecule	differentiation and growth of HUVEC (HUVEC growth accelerating activity) (HUVEC [1])	release of FGF-2 from HSPG on HUVEC (HSPG on HUVEC)	glycosyltransferase activity [2]	other results
CCC(C)C(NC(=O)C(NC(=O)OC(C)(C)C)C(C)C)C(=O)NC(C)C(=O)C(F)(F)C(=O)NC(C(=O)NC(C(=O)OC)C(C)CC)C(C)C (centres unmarked) [DFK167] (Boc-VI[X1]VI-OMe; configuration not given here)				GnT-V activity in culture solution (PaCa-2/GnT-V cell): could not be detected; GnT-V activity in culture solution (KB/GnT-V cell): could not be detected
GnT-VΔ233: GnT-V lacking variant, amino acid sequence from Glu234 to Leu741 of human GnT-V with C-terminal polyhistidine tag (protein, UniProt Q09328 234-741, looked up, fragment, C-terminal His tag) EFRWMRLRIRRMADAWIQAIKSLAEKQNLEKRKRKKVLVHLGLLTKESGFKIAETAFSGGPLGELVQWSDLITSLYLLGHDIRISASLAELKEIMKKVVGNRSGCPTVGDRIVELIYIDIVGLAQFKKTLGPSWVHYQCMLRVLDSFGTEPEFNHANYAQSKGHKTPWGKWNLNPQQFYTMFPHTPDNSFLGFVVEQHLNSSDIHHINEIKRQNQSLVYGKVDSFWKNKKIYLDIIHTYMEVHATVYGSSTKNIPSYVKNHGILSGRDLQFLLRETKLFVGLGFPYEGPAPLEAIANGCAFLNPKFNPPKSSKNTDFFIGKPTLRELTSQHPYAEVFIGRPHVWTVDLNNQEEVEDAVKAILNQKIEPYMPYEFTCEGMLQRINAFIEKQDFCHGQVMWPPLSALQVKLAEPGQSCKQVCQESQLICEPSFFQHLNKDKDMLKYKVTCQSSELAKDILVPSFDPKNKHCVFQGDLLLFSCAGAHPRHQRVCPCRDFIKGQVALCKDCL	had an HUVEC growth and differentiation accentuation action	released FGF-2	had no glycosyltransferase activity	
GnT-VΔ436: GnT-V lacking variant, amino acid sequence from Ile437 to Leu741 of human GnT-V with C-terminal polyhistidine tag (protein, UniProt Q09328 437-741, looked up, fragment, C-terminal His tag) IHHINEIKRQNQSLVYGKVDSFWKNKKIYLDIIHTYMEVHATVYGSSTKNIPSYVKNHGILSGRDLQFLLRETKLFVGLGFPYEGPAPLEAIANGCAFLNPKFNPPKSSKNTDFFIGKPTLRELTSQHPYAEVFIGRPHVWTVDLNNQEEVEDAVKAILNQKIEPYMPYEFTCEGMLQRINAFIEKQDFCHGQVMWPPLSALQVKLAEPGQSCKQVCQESQLICEPSFFQHLNKDKDMLKYKVTCQSSELAKDILVPSFDPKNKHCVFQGDLLLFSCAGAHPRHQRVCPCRDFIKGQVALCKDCL	did not have an HUVEC growth and differentiation accentuation action	did not affect release of FGF-2	had no glycosyltransferase activity	induction of neovascularization in CAM assay (chicken microvessels): did not have a neovascularization activity
GnT-V: secretory type glycosyltransferase N-acetylglucosaminyltransferase V (protein, UniProt Q09328 1-741, looked up) Alpha-1,6-mannosylglycoprotein …: MALFTPWKLSSQKLGFFLVTFGFIWGMMLLHFTIQQRTQPESSSMLREQILDLSKRYIKALAEENRNVVDGPYAGVMTAYDLKKTLAVLLDNILQRIGKLESKVDNLVVNGTGTNSTNSTTAVPSLVALEKINVADIINGAQEKCVLPPMDGYPHCEGKIKWMKDMWRSDPCYADYGVDGSTCSFFIYLSEVENWCPHLPWRAKNPYEEADHNSLAEIRTDFNILYSMMKKHEEFRWMRLRIRRMADAWIQAIKSLAEKQNLEKRKRKKVLVHLGLLTKESGFKIAETAFSGGPLGELVQWSDLITSLYLLGHDIRISASLAELKEIMKKVVGNRSGCPTVGDRIVELIYIDIVGLAQFKKTLGPSWVHYQCMLRVLDSFGTEPEFNHANYAQSKGHKTPWGKWNLNPQQFYTMFPHTPDNSFLGFVVEQHLNSSDIHHINEIKRQNQSLVYGKVDSFWKNKKIYLDIIHTYMEVHATVYGSSTKNIPSYVKNHGILSGRDLQFLLRETKLFVGLGFPYEGPAPLEAIANGCAFLNPKFNPPKSSKNTDFFIGKPTLRELTSQHPYAEVFIGRPHVWTVDLNNQEEVEDAVKAILNQKIEPYMPYEFTCEGMLQRINAFIEKQDFCHGQVMWPPLSALQVKLAEPGQSCKQVCQESQLICEPSFFQHLNKDKDMLKYKVTCQSSELAKDILVPSFDPKNKHCVFQGDLLLFSCAGAHPRHQRVCPCRDFIKGQVALCKDCL				induction of neovascularization, migration (HUVEC [3]): confirmed; induction of neovascularization, capillary-like tube formation (HUVEC [4]): confirmed
